Laboratory results from the Immune Epitope Database (IEDB).

Columns and labels:
[1] = biological target: HLA-A*01:01; assay: IEDB peptide-MHC binding, purified MHC/direct/fluorescence; filed as Kd, often an IC50 or EC50 that approximates it; ≥ and ≤ were set here for values at or beyond the usual limits of such assays
[2] = biological target: HLA-B*58:01; assay: as above
[3] = biological target: HLA-A*26:01; assay: as above
[4] = biological target: HLA-A*02:01; assay: as above
[5] = biological target: HLA-A*69:01; assay: as above
[6] = biological target: HLA-B*07:02; assay: as above
[7] = biological target: HLA-B*35:01; assay: as above
[8] = biological target: HLA-B*15:02; assay: as above
[9] = biological target: HLA-A*03:01; assay: as above
[10] = biological target: HLA-A*31:01; assay: as above
[11] = biological target: HLA-B*46:01; assay: as above
[12] = biological target: HLA-B*08:01; assay: as above
[13] = biological target: HLA-A*11:01; assay: as above
[14] = biological target: HLA-B*44:02; assay: as above
[15] = biological target: HLA-B*40:01; assay: as above
[16] = biological target: HLA-B*15:01; assay: as above
[17] = biological target: HLA-B*48:01; assay: IEDB peptide-MHC binding, purified MHC/competitive/fluorescence; filed as Kd, often an IC50 or EC50 that approximates it; ≥ and ≤ were set here for values at or beyond the usual limits of such assays
[18] = biological target: HLA-A*26:01; assay: as above; conditions: source organism: Zaire ebolavirus
[19] = biological target: HLA-A*02:01; assay: as above; conditions: source organism: Zaire ebolavirus
[20] = biological target: HLA-A*69:01; assay: as above; conditions: source organism: Zaire ebolavirus
[21] = biological target: HLA-B*35:01; assay: as above
[22] = biological target: HLA-B*27:03; assay: as above; conditions: source organism: Zaire ebolavirus
[23] = biological target: HLA-B*39:01; assay: as above; conditions: source organism: Zaire ebolavirus
[24] = biological target: HLA-A*02:16; assay: IEDB peptide-MHC binding, purified MHC/direct/fluorescence; filed as Kd, often an IC50 or EC50 that approximates it; ≥ and ≤ were set here for values at or beyond the usual limits of such assays; conditions: source organism: Zaire ebolavirus
[25] = biological target: HLA-C*14:02; assay: as above
[26] = biological target: HLA-A*68:02; assay: as above; conditions: source organism: Zaire ebolavirus
[27] = biological target: HLA-A*02:03; assay: as above; conditions: source organism: Zaire ebolavirus
[28] = biological target: HLA-A*02:12; assay: as above; conditions: source organism: Zaire ebolavirus
[29] = biological target: HLA-A*02:19; assay: as above; conditions: source organism: Zaire ebolavirus
[30] = biological target: HLA-B*27:05; assay: as above
[31] = biological target: HLA-B*15:42; assay: IEDB peptide-MHC binding, purified MHC/competitive/fluorescence; filed as Kd, often an IC50 or EC50 that approximates it; ≥ and ≤ were set here for values at or beyond the usual limits of such assays
[32] = biological target: HLA-B*83:01; assay: as above
[33] = biological target: HLA-A*68:23; assay: as above
[34] = biological target: HLA-B*45:06; assay: as above
[35] = biological target: HLA-B*51:01; assay: as above; conditions: source organism: Salmonella enterica subsp. enterica serovar Typhi
[36] = biological target: HLA-B*08:01; assay: as above; conditions: source organism: Salmonella enterica subsp. enterica serovar Typhi
[37] = biological target: HLA-C*05:01; assay: IEDB peptide-MHC binding, purified MHC/direct/fluorescence; filed as Kd, often an IC50 or EC50 that approximates it; ≥ and ≤ were set here for values at or beyond the usual limits of such assays; conditions: source organism: Salmonella enterica subsp. enterica serovar Typhi str. CT18
[38] = biological target: HLA-A*32:15; assay: IEDB peptide-MHC binding, purified MHC/competitive/fluorescence; filed as Kd, often an IC50 or EC50 that approximates it; ≥ and ≤ were set here for values at or beyond the usual limits of such assays
[39] = biological target: HLA-A*32:07; assay: as above
[40] = biological target: HLA-B*40:13; assay: as above
[41] = biological target: HLA-C*15:02; assay: IEDB peptide-MHC binding, purified MHC/direct/fluorescence; filed as Kd, often an IC50 or EC50 that approximates it; ≥ and ≤ were set here for values at or beyond the usual limits of such assays; conditions: source organism: Entamoeba histolytica HM-1:IMSS
[42] = biological target: HLA-C*06:02; assay: as above; conditions: source organism: Entamoeba histolytica HM-1:IMSS
[43] = biological target: HLA-B*58:01; assay: IEDB peptide-MHC binding, purified MHC/competitive/fluorescence; filed as Kd, often an IC50 or EC50 that approximates it; ≥ and ≤ were set here for values at or beyond the usual limits of such assays; conditions: source organism: Yersinia pestis Nepal516
[44] = biological target: HLA-C*14:02; assay: as above; conditions: source organism: Yersinia pestis Nepal516
[45] = source organism: Yersinia pestis Antiqua
[46] = source organism: Yersinia pestis
[47] = source organism: Entamoeba histolytica HM-1:IMSS
[48] = source organism: Zaire ebolavirus
[49] = source organism: Vibrio vulnificus
[50] = source organism: Salmonella enterica subsp. enterica serovar Typhi
[51] = source organism: Escherichia coli
[52] = source organism: Escherichia coli O157:H7
[53] = source organism: Yersinia pestis Nepal516

FQLYSDLAH
Kd [1, 45]: ≥ 20000 nM | Kd [2, 45]: ≥ 20000 nM | Kd [3, 45]: ≥ 20000 nM | Kd [4, 46]: 1910 nM | Kd [5, 45]: ≥ 20000 nM | Kd [6, 45]: ≥ 20000 nM | Kd [7, 46]: 860 nM | Kd [8, 45]: 25.9 nM | Kd [9, 45]: ≥ 20000 nM | Kd [10, 45]: ≥ 20000 nM | Kd [11, 45]: 2270 nM | Kd [12, 45]: ≥ 20000 nM | Kd [13, 45]: ≥ 20000 nM | Kd [14, 45]: ≥ 20000 nM | Kd [15, 45]: ≥ 20000 nM | Kd [16, 46]: 68.2 nM

KEFNGPAML
Kd [17, 47]: 438 nM

KVYWAGIEF
Kd [18]: ≥ 20000 nM | Kd [19]: ≥ 20000 nM | Kd [20]: ≥ 20000 nM | Kd [21, 48]: 114 nM | Kd [22]: ≥ 20000 nM | Kd [23]: ≥ 20000 nM | Kd [24]: ≥ 20000 nM | Kd [25, 48]: 18 nM | Kd [26]: ≥ 20000 nM | Kd [27]: ≥ 20000 nM | Kd [28]: ≥ 20000 nM | Kd [29]: ≥ 20000 nM | Kd ([16]; source organism: Ebola virus - Gabon (1994-1997)): 133 nM

LLTQSNAGF
Kd [1, 49]: ≥ 20000 nM | Kd [3, 49]: ≥ 20000 nM | Kd [5, 49]: ≥ 20000 nM | Kd [6, 49]: ≥ 20000 nM | Kd [30, 49]: ≥ 20000 nM | Kd [7, 49]: 345 nM | Kd ([8]; source organism: Vibrio vulnificus CMCP6): 49 nM | Kd [9, 49]: ≥ 20000 nM | Kd [10, 49]: ≥ 20000 nM | Kd [11, 49]: ≥ 20000 nM | Kd [12, 49]: ≥ 20000 nM | Kd [13, 49]: ≥ 20000 nM | Kd [14, 49]: ≥ 20000 nM | Kd [15, 49]: ≥ 20000 nM | Kd [16, 49]: 146 nM

MPFIATPPV
Kd [31, 50]: ≥ 5000 nM | Kd [32, 50]: 62.6 nM | Kd [33, 50]: 2.1 nM | Kd [34, 50]: ≥ 5000 nM | Kd [21, 50]: ≤ 0.1 nM | Kd [35]: 567 nM | Kd [36]: 1440 nM | Kd [37]: ≥ 20000 nM

RQQAIVDLL
Kd ([17]; source organism: Shigella flexneri 5 str. 8401): 153 nM

SMFERDFHF
Kd [31, 47]: ≥ 5000 nM | Kd [32, 47]: ≥ 5000 nM | Kd [38, 47]: 31.6 nM | Kd [34, 47]: ≥ 5000 nM | Kd [39, 47]: 9.3 nM | Kd [40, 47]: 2.8 nM | Kd [41]: ≥ 20000 nM | Kd [42]: 1720 nM | Kd [4, 47]: 4 nM | Kd [5, 47]: ≥ 5000 nM | Kd [25, 47]: 3270 nM

YLGTPNNTY
Kd [1, 51]: 284 nM | Kd [2, 52]: ≥ 20000 nM | Kd [3, 52]: ≥ 20000 nM | Kd [4, 52]: ≥ 20000 nM | Kd [5, 52]: ≥ 20000 nM | Kd [6, 52]: ≥ 20000 nM | Kd [30, 52]: ≥ 20000 nM | Kd [7, 51]: 325 nM | Kd [8, 52]: 9.4 nM | Kd [9, 52]: ≥ 20000 nM | Kd [10, 52]: ≥ 20000 nM | Kd [11, 52]: ≥ 20000 nM | Kd [12, 52]: ≥ 20000 nM | Kd [13, 52]: ≥ 20000 nM | Kd [14, 52]: ≥ 20000 nM | Kd [15, 52]: ≥ 20000 nM | Kd [16, 51]: 137 nM

YSLMSRYQF
Kd [31, 53]: ≥ 5000 nM | Kd [32, 53]: ≥ 5000 nM | Kd [38, 53]: 58.2 nM | Kd [33, 53]: 29.5 nM | Kd [43]: 16.2 nM | Kd [34, 53]: ≥ 5000 nM | Kd [39, 53]: 25.8 nM | Kd [44]: 43 nM | Kd [40, 53]: 13.2 nM
